Residue numbers refer to the chain shown, from its start.
T1: cynomolgus monkey FcγRIIa2 extracellular domain, C-terminal His-tag (cynomolgus monkey)
T1 construct: also called cyno FcγRIIa2; cynoFcgRIIa2; not shown: His-tag added to C-terminus
T1 chain: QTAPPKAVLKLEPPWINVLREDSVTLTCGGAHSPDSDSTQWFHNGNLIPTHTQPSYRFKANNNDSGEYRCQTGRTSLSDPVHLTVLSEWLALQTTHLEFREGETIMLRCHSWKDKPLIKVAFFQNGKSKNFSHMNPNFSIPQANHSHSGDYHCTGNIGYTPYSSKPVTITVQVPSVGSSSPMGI

T2: cynomolgus monkey FcγRIIa1 extracellular domain, C-terminal His-tag (cynomolgus monkey)
T2 construct: also called cyno FcγRIIa1; cynoFcgRIIa1; not shown: His-tag added to C-terminus
T2 chain: T1 chain with T95P, A121T, K127I, S128A, N130K, N135D, Q142R

T3: cynomolgus monkey FcγRIIa3 extracellular domain, C-terminal His-tag (cynomolgus monkey)
T3 construct: also called cyno FcγRIIa3; cynoFcgRIIa3; not shown: His-tag added to C-terminus
T3 chain: T1 chain with K127I, N130K, H133P, Q142R

T4: cynomolgus monkey FcγRIIb extracellular domain, C-terminal His-tag (cynomolgus monkey)
T4 construct: also called cyno FcγRIIb; cynoFcγRIIb; not shown: His-tag added to C-terminus
T4 chain: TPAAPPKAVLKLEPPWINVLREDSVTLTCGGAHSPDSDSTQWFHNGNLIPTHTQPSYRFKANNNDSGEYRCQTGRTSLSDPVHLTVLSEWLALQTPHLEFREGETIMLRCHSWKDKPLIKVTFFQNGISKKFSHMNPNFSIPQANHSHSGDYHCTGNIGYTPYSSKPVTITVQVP

T5: human FcγRIIaR extracellular domain, C-terminal His-tag (human, UniProt P12318 34-217)
T5 construct: also called human FcγRIIa (type R); FcgRIIaR; not shown: His-tag added to C-terminus
T5 chain: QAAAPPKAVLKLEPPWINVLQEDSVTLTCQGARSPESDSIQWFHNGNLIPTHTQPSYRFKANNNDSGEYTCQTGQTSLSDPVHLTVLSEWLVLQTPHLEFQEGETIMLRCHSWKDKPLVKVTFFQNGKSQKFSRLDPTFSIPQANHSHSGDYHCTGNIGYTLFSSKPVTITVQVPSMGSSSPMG

T6: human FcγRIIb extracellular domain, C-terminal His-tag (human, UniProt P31994 43-217)
T6 construct: also called FcgRIIb (human); not shown: His-tag added to C-terminus
T6 sequence: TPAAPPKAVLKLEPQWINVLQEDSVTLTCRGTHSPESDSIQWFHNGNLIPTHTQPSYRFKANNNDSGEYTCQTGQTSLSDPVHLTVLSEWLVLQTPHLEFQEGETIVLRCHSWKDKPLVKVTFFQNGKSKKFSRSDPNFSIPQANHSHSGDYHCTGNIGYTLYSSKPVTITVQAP

B1: M103205H795-MY213/M103202L889-SK1 (antibody, human IgG1, kappa)
heavy: QVTLKESGPVLVKPTETLTLTCTVSGIDLSHDDISWVRQAPGKGLEWVGIISYAGSTYYASWAKGRLTISKDTSKNQVVLTMTNMDPVDTATYYCARGVPAYSHGGDLWGQGTLVTVSSASTKGPSVFPLAPSSKSTSGGTAALGCLVKDYFPEPVTVSWNSGALTSGVHTFPAVLQSSGLYSLSSVVTVPSSSLGTQTYICNVNHKPSNTKVDKKVEPKSCDKTHTCPPCPAPELLNGPSVFLFPPKPKDTLMISRTPEVTCVVVDVSDEDPEVKFNWYVDGVEVHNAKTKPREEQYNSTYRVVSVLTVLHQDWLNGKEYKCKVSNKALPKPIEKTISKAKGQPREPQVYTLPPSREEMTKNQVSLTCLVKGFYPSDIAVEWESNGQPENNYKTTPKVLDSDGSFFLYSKLTVDKSRWQQGNVFSCSVMHEALHNHYTQKSLSLSP
light: DIVMTQSPATLSLSPGERATLSCTSSQSVYHANWLSWFQQKPGQPPKLLIYWASTLAYGVPSRFSGSGSGTDFTLTISSLQPEDAATYYCAGGYGGGRYAFGQGTKVEIKRTVAAPSVFIFPPSDEQLKSGTASVVCLLNNFYPREAKVQWKVDNALQSGNSQESVTEQDSKDSTYSLSSTLTLSKADYEKHKVYACEVTHQGLSSPVTKSFNRGEC
B2: M103205H795-MY270/M103202L889-SK1 (antibody, human IgG1, kappa)
heavy: B1 heavy with N238H
light: B1 light
B3: M103205H795-MY292/M103202L889-SK1 (antibody, human IgG1, kappa)
heavy: B1 heavy with N238G, G239Y, Q297L, K398M
light: B1 light
B4: M103205H795-MY308/M103202L889-SK1 (antibody, human IgG1, kappa)
heavy: B1 heavy with N238T, D270E, K398P
light: B1 light
B5: M103205H795-MY279/M103202L889-SK1 (antibody, human IgG1, kappa)
heavy: B1 heavy with N238H, Q297L, K398P
light: B1 light
B6: M103205H795-MY280/M103202L889-SK1 (antibody, human IgG1, kappa)
heavy: B1 heavy with N238V, Q297L, K398P
light: B1 light
B7: M103205H795-MY278/M103202L889-SK1 (antibody, human IgG1, kappa)
heavy: B1 heavy with N238M, Q297L, K398P
light: B1 light
B8: M103205H795-MY276/M103202L889-SK1 (antibody, human IgG1, kappa)
heavy: B1 heavy with N238I
light: B1 light
B9: M103205H795-MY281/M103202L889-SK1 (antibody, human IgG1, kappa)
heavy: B1 heavy with N238Q, Q297L, K398P
light: B1 light

Molecular target: T1, cynomolgus monkey FcγRIIa2 …
Test: SPR (Biacore), antibody captured, FcgR analyte, 25 C

Going from B1 to B2, the Kd rises from 520 nM to 2300 nM (4.4-fold).

First: B3
Second: B4
The Kd of the first is 1.8-fold lower: 2500 nM for the first, 4600 nM for the second.

Compared with B5, B6 is 2.8-fold lower in Kd: 3300 nM for the first, 1200 nM for the second. The second binds more tightly here.

Going from B7 to B8, the Kd falls from 3600 nM to 1300 nM (2.8-fold). The second binds more tightly here.

For B9, the Kd was 2500 nM.

Molecular target: T2, cynomolgus monkey FcγRIIa1 …
Test: as above

First: B1
Second: B2
The Kd of the first is 3.4-fold lower: 530 nM for the first, 1800 nM for the second.

Going from B3 to B4, the Kd rises from 1500 nM to 3900 nM (2.6-fold). The first binds more tightly here.

First: B5
Second: B6
The Kd of the first is 2.8-fold higher: 2800 nM for the first, 1000 nM for the second.

First: B7
Second: B8
The Kd of the first is 2.7-fold higher: 3000 nM for the first, 1100 nM for the second.

In the case of B9, the Kd is reported as 1900 nM.

Molecular target: T7, human FcγRIIIaV extracellular domain, C-terminal His-tag (human, UniProt P08637 17-208)
T7 construct: also called FcgRIIIaV; not shown: His-tag added to C-terminus
T7 sequence (P08637 17-208 F176V): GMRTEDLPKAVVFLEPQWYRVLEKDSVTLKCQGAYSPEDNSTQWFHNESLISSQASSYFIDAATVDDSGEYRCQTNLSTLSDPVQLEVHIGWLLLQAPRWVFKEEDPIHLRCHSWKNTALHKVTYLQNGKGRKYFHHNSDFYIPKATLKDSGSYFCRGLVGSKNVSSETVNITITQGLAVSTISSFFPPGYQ
Test: as above

Compared with B1, B2 is 3-fold lower in Kd: 11000 nM for the first, 3700 nM for the second. The second binds more tightly here.

Compared with B3, B4 is 3.4-fold lower in Kd: 28000 nM for the first, 8300 nM for the second. The second binds more tightly here.

Compared with B5, B6 is 1.6-fold lower in Kd: 7000 nM for the first, 4400 nM for the second. The second binds more tightly here.

Going from B7 to B8, the Kd rises from 3400 nM to 5700 nM (1.7-fold). The first binds more tightly here.

Binder B9 has a Kd of 2100 nM.

Molecular target: T3, cynomolgus monkey FcγRIIa3 …
Test: as above

Compared with B1, B2 is 1.9-fold higher in Kd: 1300 nM for the first, 2500 nM for the second. The first binds more tightly here.

First: B3
Second: B4
The Kd of the first is 2-fold higher: 2200 nM for the first, 1100 nM for the second. The second binds more tightly here.

B5 and B6 are within 1.5-fold of each other in Kd: 4700 nM for the first, 4600 nM for the second.

First: B7
Second: B8
The Kd of the first is 2.3-fold higher: 10000 nM for the first, 4300 nM for the second.

Work on B9 yielded a Kd of 9100 nM.

Molecular target: T4, cynomolgus monkey FcγRIIb extracellular …
Test: as above

First: B1
Second: B2
The Kd of the first is 3.3-fold lower: 160 nM for the first, 530 nM for the second.

Going from B3 to B4, the Kd rises from 430 nM to 1300 nM (3-fold).

Compared with B5, B6 is 2.8-fold lower in Kd: 910 nM for the first, 330 nM for the second.

Going from B7 to B8, the Kd falls from 1300 nM to 310 nM (4.2-fold). The second binds more tightly here.

With B9 the Kd was 620 nM.

Molecular target: T5, human FcγRIIaR extracellular domain, …
Test: as above

Compared with B1, B2 is 1.7-fold lower in Kd: 630 nM for the first, 370 nM for the second. The second binds more tightly here.

First: B3
Second: B4
The Kd of the first is 4.7-fold lower: 76 nM for the first, 360 nM for the second. The first binds more tightly here.

Compared with B5, B6 is 1.6-fold lower in Kd: 720 nM for the first, 450 nM for the second. The second binds more tightly here.

First: B7
Second: B8
The Kd of the first is 5.2-fold higher: 1300 nM for the first, 250 nM for the second.

Work on B9 yielded a Kd of 390 nM.

Molecular target: T6, human FcγRIIb extracellular domain, …
Test: as above

Going from B1 to B2, the Kd rises from 360 nM to 2500 nM (6.9-fold).

Going from B3 to B4, the Kd rises from 140 nM to 4100 nM (29-fold). The first binds more tightly here.

Compared with B5, B6 is 1.6-fold lower in Kd: 4600 nM for the first, 2900 nM for the second.

Compared with B7, B8 is 1.8-fold lower in Kd: 4400 nM for the first, 2400 nM for the second.

In the case of B9, the Kd is reported as 1800 nM.
